From patent US20140308316A1, “ANTIGEN PRESENTING CANCER VACCINE WITH GAMMA INTERFERON” (CALIFORNIA STEM CELL, INC., priority 2011, published 2014)

Tests used:
melanoma cell lines = assay: Apoptosis by flow cytometry using 7-AAD and annexin-V; type: cell-based; settings: pan caspase inhibitor with IFN-gamma
Experimental: (§1) The methodology of the study was as follows. Autologous and model melanoma tumor cell lines were incubated with 1000 IU/mL of IFN-gamma for 72 hours prior to assaying for autophagy, apoptosis and MHC class II expression. Autophagy was detected by immunobloting with antibodies against LC3 II and by flow cytometry with Enzo's CytoID® Autophagy Detection Kit. Apoptosis and MHC class II induction were assayed by flow cytometry using 7-AAD and annexin-V staining and antibodies against MHC class II, respectively.
Analysis of tumor cell death and changes in major histocompatibility class II expression in response to IFN-gamma were conducted by use of antibodies directed against MHC class II, annexin-V and 7-amino-actinomycin D (7-AAD) and acquired on a Beckton-Dickenson FACS Calibur® flow cytometer.
What was investigated was the induction of autophagy, apoptosis and MHC class II molecules after IFN-gamma treatment of melanoma tumor cells in vitro. Autologous and model melanoma tumor cell lines were incubated with 1000 IU/mL of IFN-gamma for 72 hours prior to assaying for autophagy, apoptosis and MHC class II expression. Autophagy was detected by immunobloting with antibodies against LC3 II and by flow cytometry with Enzo's CytoID Autophagy Detection Kit. […]

SK-5-Mel cells [1] = assay: Autophagy by flow cytometry with Enzo Cyto-ID Autophagy Detection Dye; type: cell-based; settings: for effect on autophagy in IFN-gamma treated cells: z-VAD 20 uM with 1000 IU/mL IFN-gamma, 72 hours
Experimental: FIGS. 6A and 6B reveal apoptosis and autophagy induced in response to interferon-gamma. SK-5-Mel cells were incubated with 1000 IU/mL of IFN-gamma for 72 hours after which non-adherent and adherent populations were collected and assayed for apoptosis and autophagy by flow cytometry using 7-AAD and Annexin-V (FIG. 6A). Enzo Cyto-ID Autophagy Detection Dye was used to measure autophagy by flow cytometry by measuring the mean intensity peak shift of dye provided by the manufacturer (FIG. […]). Fold changes in the peak shift in comparison to 5% FBS/RPMI are shown in FIG. 6C with serum-free as positive control for the induction of autophagy.
SK-5-Mel cells were treated with 1000 IU/mL of IFN-gamma in the presence of 20 uM of the pan-caspase inhibitor z-VAD or its control compound, z-FA for 72 hours. The cells were harvested and assayed for autophagy by flow cytometry as in FIG. 6C.
as §1
(§2) The commercially available melanoma cell lines A375, SK-Mel-5 and SK-Mel-28 were purchased from American Type Culture Collection (Catalogue numbers: CRL-1619, HTB-70, and HTB-72). A375, SK-Mel-5, and SK-Mel-28 were maintained in 5% fetal bovine serum in RPMI-1640 (Invitrogen, catalogue number 11875-085). […]
(§3) What was investigated was the induction of autophagy, apoptosis and MHC class II molecules after IFN-gamma treatment of melanoma tumor cells in vitro. […] Autophagy was detected by immunobloting with antibodies against LC3 II and by flow cytometry with Enzo's CytoID Autophagy Detection Kit. […]

MHC class II = assay: Flow cytometry for MHC class II on IFN-gamma treated autologous tumor cells; type: cell-based, human
Experimental: (§4) FIGS. 2A-D show characterization of IFN-gamma treated autologous tumor cells used for loading dendritic cells. Autologous melanoma tumor cells were treated with or without 1000 IU/mL IFN-gamma for 72 hours in 15% FBS/ECS in RPMI, harvested and irradiated with 100 Gy and cryopreserved. Cells were then thawed in AIMV and a sample taken for flow cytometry and for preparation of cell lysates for immunoblotting prior to antigen loading of DCs. An example of four separate autologous melanoma cell lines is shown (FIG. 2A, FIG. 2B and FIG. 2C). Induction major histocompatibility complexes by IFN-gamma treatment of autologous tumor cells (FIG. 2D). Tumor cells were harvested after being treated with or without 1000 IU/mL IFN-gamma for 72 hours and then assayed for MHC class I and class II. Control isotype antibodies were used to identify positive populations. Dark data points indicate median mean fluorescent plus/minus 95% confidence interval, N=65. […]

MHC class I = assay: Flow cytometry for MHC class I on IFN-gamma treated autologous tumor cells; type: cell-based, human; settings: 1000 IU/mL IFN-gamma 72 hours, N=65, p=2.8×10^−8
Experimental: as §4

[2] = test system: melanoma cell lines used in patient-specific dendritic cell therapy; assay: Immunohistochemistry of tumor associated antigens in melanoma lines with or without IFN-gamma; type: cell-based, human; settings: 1000 IU/mL IFN-gamma, 72 hours, N=27 samples
Experimental: Expression of a panel antigens by melanoma lines were determined using immunocytochemical procedure. Ceils were cultured in 8-chamber culture slides (Thermo Fisher, Rochester, N.Y.) in the presence or absence of 1000 IU/mL IFN-gamma. After 72 hours, the cells were washed 3 times with 1× Phosphate Buffered Saline (PBS) and fixed in cold acetone. After blocking endogenous peroxidase, cells were incubated with appropriate primary antibodies against the antigens listed. Immunohistochemistry was performed using biotinylated antimouse or rabbit immunoglobulins. Super Sensitive enzyme-conjugated streptavidin labeling and horse radish peroxidase chromogen, and substrate kits (Biogenex, San Ramon, Calif.). The reactivity of the following anti-human polyclonal or monoclonal antibodies was investigated with isotype matched control antibody: S-100 and HMB-45 (Biogenex, San Ramon, Calif.), Mel-2, Mel-5, Mart-1 (Signet, Dedham, Mass.), Tyrosinase and Mage-1 (Thermo Scientific, Fremont, Calif.), Melan-A, HLA-class I and HLA-class II (Dako Denmark).
Table I: Change in the expression level of common tumor associated antigens in response to interferon-gamma in melanoma cell lines used patient-specific cell based dendritic cell therapy.

SK-5-Mel cells [3] = assay: MHC class II (HLA-DR) expression by flow cytometry with autophagy inhibitor 3-MA; type: cell-based; settings: 1000 IU/mL IFN-gamma 72 hours; 3-MA 10 uM where present
Experimental: The cells were then harvested and assayed for apoptosis and MHC class II (HLA-DR) expression by flow cytometry.
as §1, §2, §3

[4] = test system: autologous melanoma cell lines; assay: Immunoblot of lysates from melanoma cells incubated with or without IFN-gamma; type: cell-based, human; settings: IFN-gamma treated vs untreated
Experimental: FIGS. 2A-D show characterization of IFN-gamma treated autologous tumor cells used for loading dendritic cells. Autologous melanoma tumor cells were treated with or without 1000 IU/mL IFN-gamma for 72 hours in 15% FBS/ECS in RPMI, harvested and irradiated with 100 Gy and cryopreserved. Cells were then thawed in AIMV and a sample taken for flow cytometry and for preparation of cell lysates for immunoblotting prior to antigen loading of DCs. An example of four separate autologous melanoma cell lines is shown (FIG. 2A, FIG. 2B and FIG. 2C). Induction major histocompatibility complexes by IFN-gamma treatment of autologous tumor cells (FIG. 2D). Tumor cells were harvested after being treated with or without 1000 IU/mL IFN-gamma for 72 hours and then assayed for MHC class I and class II. Control isotype antibodies were used to identify positive populations. Dark data points indicate median mean fluorescent plus/minus 95% confidence interval, N=65.
Cytoplasmic cell lysates were prepared with Mammalian Protein Extraction Reagent (Thermo Scientific, Rockford, Ill.) plus protease inhibitor cocktail (Roche, Indianapolis, Ind.) at 10,000 cells/uL on ice. Approximately 25 uLs/lane of cell lysates were separated on 12.5% tris-glycine gels, transferred to PVDF membrane and probed with antibodies against the following: calreticulin (MBL, Woburn, Mass.), Hsp-60, Hsp-70, Hsp-90 (R&D Systems, Minneapolis, Minn.), HMBG-1 (Cell Signaling, Danvers, Mass.), ICAM-1 (Santa Cruz Biotech, Santa Cruz, Calif.), Mel-4, Mart-1 (Signet, Emeryville, Calif.), tyrosinase (Upstate, Lake Placid, N.Y.) and GADPH (Calbiochem, Darmstadt, Germany).
Lysates from cells that were incubated in the presence or absence of IFN-gamma were subjected to immunoblotting for a variety of molecules that may be important mediators of immunity (FIG. 1B). In the setting of melanoma cells treated with IFN-gamma, heat shock proteins appear to be differentially regulated but remain largely present in the cell preparations, especially in the case of hsp-70.

melanoma tumor cells = assay: Sensitivity of IFN-gamma treated melanoma tumor cells to cytotoxic T lymphocyte activity; type: cell-based

Q: With “carbobenzoxy-valyl-alanyl-aspartyl-[O-methyl]-fluoromethylketone [Z-VAD]” as the molecule, how does the “effect on apoptosis in IFN-gamma treated cells” value (melanoma cell lines) read?
A: The value was “prevents apoptosis”.

Q: And the “effect on autophagy in IFN-gamma treated cells” value (SK-5-Mel cells [1])?
A: Its value is “does not perturb autophagy”.

Q: What about the “effect on autophagy in IFN-gamma treated cells” value (SK-5-Mel cells [1]; listed as z-VAD) of the same molecule?
A: The value was “did not affect”.

B1: interferon-gamma (protein, UniProt P01579 24-161, looked up)
Interferon gamma: QDPYVKEAENLKKYFNAGHSDVADNGTLFLGILKNWKEESDRKIMQSQIVSFYFKLFKNFKDDQSIQKSVETIKEDMNVKFFNSNKKKRDDFEKLTNYSVTDLNVQRKAIHELIQVMAELSPAAKTGKRKRSQMLFRG
notes: interferon-gamma (InterMune), type II interferon, used at 1000 IU/mL for 72 hours on tumor cells
Q: With B1 as the molecule, how does the “MHC class II mean fluorescence intensity, median induction (95% C.I.)” value (MHC class II; 1000 IU/mL IFN-gamma 72 hours, N=65, p=0.039) read?
A: Its value is 4.23±2.66.

Q: What about the “cases with MHC class II induction greater than two fold” value (MHC class II; in response to IFN-gamma treatment) of the same molecule?
A: Its value is 70%.

Q: And the “MHC class I median fold induction (95% C.I.)” value (MHC class I)?
A: Its value is 2.91±1.13 fold.

Q: And the “autophagy, fold change” value (SK-5-Mel cells [1]; 1000 IU/mL IFN-gamma 72 hours, z-VAD 20 uM where present, peak shift vs 5% FBS/RPMI)?
A: Its value is 2.75±0.15 fold change.

Q: What about the “Change after IFN-gamma treatment: None” value ([2]; HMB-45) of the same molecule?
A: The value was 54.5%.

Q: And the “Change after IFN-gamma treatment: Down” value ([2]; MAGE-1)?
A: Its value is 81.5%.

Q: What about the “Change after IFN-gamma treatment: None” value ([2]; MAGE-1) of the same molecule?
A: The value was 38.5%.

Q: What about the “Change after IFN-gamma treatment: Down” value ([2]; MART-1) of the same molecule?
A: The value was 85.2%.

Q: And the “Change after IFN-gamma treatment: None” value ([2]; MART-1)?
A: The value was 14.8%.

Q: What about the “Change after IFN-gamma treatment: Down” value ([2]; Mel-2) of the same molecule?
A: Its value is 53.8%.

Q: And the “Change after IFN-gamma treatment: None” value ([2]; Mel-2)?
A: Its value is 48.2%.

Q: What about the “Change after IFN-gamma treatment: Down” value ([2]; Mel-5) of the same molecule?
A: The value was 27.3%.

Q: What about the “Change after IFN-gamma treatment: None” value ([2]; Mel-5) of the same molecule?
A: Its value is 72.7%.

Q: What about the “Change after IFN-gamma treatment: Down” value ([2]; Melan-A) of the same molecule?
A: The value was 70.8%.

Q: What about the “Change after IFN-gamma treatment: None” value ([2]; Melan-A) of the same molecule?
A: The value was 29.2%.

Q: What about the “Change after IFN-gamma treatment: Down” value ([2]; S-100) of the same molecule?
A: The value was 57.1%.

Q: What about the “Change after IFN-gamma treatment: None” value ([2]; S-100) of the same molecule?
A: Its value is 42.9%.

Q: What about the “Change after IFN-gamma treatment: Down” value ([2]; Tyrosinase) of the same molecule?
A: The value was 80.0%.

Q: And the “Change after IFN-gamma treatment: None” value ([2]; Tyrosinase)?
A: The value was 40.0%.

Q: What about the “MHC class II positive cells” value (SK-5-Mel cells [3]) of the same molecule?
A: Its value is 39.4%.

Q: What about the ICAM-1 expression [4] of the same molecule?
A: Its ICAM-1 expression is “significantly up-regulated”.

Q: What about the “calreticulin and high-mobility group box-1 protein expression” value [4] of the same molecule?
A: The value was “up-regulated in some cases”.

Q: What about the “common melanoma antigens (mel-4, Mart-1 and tyrosinase) expression” value [4] of the same molecule?
A: Its value is “down regulated”.

Q: And the “sensitivity to cytotoxic T lymphocyte (CTL) activity” value (melanoma tumor cells)?
A: Its value is “more sensitive”.
